B1: Nuclear RNAi defective-3 protein (Caenorhabditis elegans), Q21691 (parent)
chain: MDLLDKVMGEMGSKPGSTAKKPATSASSTPRTNVWGTAKKPSSQQQPPKPLFTTPGSQQGSLGGRIPKREHTDRTGPDPKRKPLGGLSVPDSFNNFGTFRVQMNAWNLDISKMDERISRIMFRATLVHTDGRRFELSLGVSAFSGDVNRQQRRQAQCLLFRAWFKRNPELFKGMTDPAIAAYDAAETIYVGCSFFDVELTEHVCHLTEADFSPQEWKIVSLISRRSGSTFEIRIKTNPPIYTRGPNALTLENRSELTRIIEAITDQCLHNEKFLLYSSGTFPTKGGDIASPDEVTLIKSGFVKTTKIVDRDGVPDAIMTVDTTKSPFYKDTSLLKFFTAKMDQLTNSGGGPRGHNGGRERRDGGGNSRKYDDRRSPRDGEIDYDERTVSHYQRQFQDERISDGMLNTLKQSLKGLDCQPIHLKDSKANRSIMIDEIHTGTADSVTFEQKLPDGEMKLTSITEYYLQRYNYRLKFPHLPLVTSKRAKCYDFYPMELMSILPGQRIKQSHMTVDIQSYMTGKMSSLPDQHIKQSKLVLTEYLKLGDQPANRQMDAFRVSLKSIQPIVTNAHWLSPPDMKFANNQLYSLNPTRGVRFQTNGKFVMPARVKSVTIINYDKEFNRNVDMFAEGLAKHCSEQGMKFDSRPNSWKKVNLGSSDRRGTKVEIEEAIRNGVTIVFGIIAEKRPDMHDILKYFEEKLGQQTIQISSETADKFMRDHGGKQTIDNVIRKLNPKCGGTNFLIDVPESVGHRVVCNNSAEMRAKLYAKTQFIGFEMSHTGARTRFDIQKVMFDGDPTVVGVAYSLKHSAQLGGFSYFQESRLHKLTNLQEKMQICLNAYEQSSSYLPETVVVYRVGSGEGDYPQIVNEVNEMKLAARKKKHGYNPKFLVICTQRNSHIRVFPEHINERGKSMEQNVKSGTCVDVPGASHGYEEFILCCQTPLIGTVKPTKYTIIVNDCRWSKNEIMNVTYHLAFAHQVSYAPPAIPNVSYAAQNLAKRGHNNYKTHTKLVDMNDYSYRIKEKHEEIISSEEVDDILMRDFIETVSNDLNAMTINGRNFWA
partner: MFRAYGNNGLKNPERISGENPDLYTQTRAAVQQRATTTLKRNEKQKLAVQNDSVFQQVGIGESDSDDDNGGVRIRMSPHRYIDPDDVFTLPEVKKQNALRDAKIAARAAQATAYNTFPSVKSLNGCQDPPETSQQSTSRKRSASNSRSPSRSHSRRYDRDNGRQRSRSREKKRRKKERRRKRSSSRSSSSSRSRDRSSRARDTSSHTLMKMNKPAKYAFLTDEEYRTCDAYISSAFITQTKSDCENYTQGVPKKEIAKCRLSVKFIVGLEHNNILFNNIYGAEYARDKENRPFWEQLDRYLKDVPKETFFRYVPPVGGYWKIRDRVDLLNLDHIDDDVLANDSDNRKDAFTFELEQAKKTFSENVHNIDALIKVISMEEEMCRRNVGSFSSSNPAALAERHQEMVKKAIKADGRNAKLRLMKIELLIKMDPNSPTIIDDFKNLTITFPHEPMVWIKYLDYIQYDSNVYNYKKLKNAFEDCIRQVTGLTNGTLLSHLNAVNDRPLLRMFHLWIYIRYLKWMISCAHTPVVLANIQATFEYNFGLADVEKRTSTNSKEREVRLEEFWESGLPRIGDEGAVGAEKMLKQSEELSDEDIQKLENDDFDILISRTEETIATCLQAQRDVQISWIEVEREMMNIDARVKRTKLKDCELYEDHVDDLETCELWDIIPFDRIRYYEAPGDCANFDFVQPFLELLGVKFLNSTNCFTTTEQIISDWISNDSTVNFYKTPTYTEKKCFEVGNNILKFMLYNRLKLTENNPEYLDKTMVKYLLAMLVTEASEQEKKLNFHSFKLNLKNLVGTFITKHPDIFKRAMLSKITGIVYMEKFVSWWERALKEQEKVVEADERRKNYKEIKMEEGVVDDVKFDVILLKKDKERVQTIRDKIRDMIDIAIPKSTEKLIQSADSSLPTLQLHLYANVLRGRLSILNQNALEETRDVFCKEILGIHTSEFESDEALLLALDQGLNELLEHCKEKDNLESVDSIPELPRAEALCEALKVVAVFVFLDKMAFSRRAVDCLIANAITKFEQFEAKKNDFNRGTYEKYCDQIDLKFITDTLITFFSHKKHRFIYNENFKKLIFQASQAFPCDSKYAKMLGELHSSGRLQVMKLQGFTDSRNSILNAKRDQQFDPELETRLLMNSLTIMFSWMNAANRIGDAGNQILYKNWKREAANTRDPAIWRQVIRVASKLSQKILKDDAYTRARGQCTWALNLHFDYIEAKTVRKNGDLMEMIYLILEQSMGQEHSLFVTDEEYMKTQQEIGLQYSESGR

Variants of: B1
Conditions: with nrde2_caeel nrde-2, G5EG51

Row | Variant | effect of a mutation on the interaction
1 | K80A;R81A;K82A | disrupting interaction
